Assay [1] deals with Epstein-Barr virus BHRF1 a.a. 1-161 with C-terminal avi-6his tag (Epstein-Barr virus). Briefly: crystal structure PDB 2WH6 of Bim-BH3 bound to BHRF1; solvent-accessible surface buried in the complex.
The target is the same in assay [2].
Assay [3] shares this target. This is another data set of the same source.

Bim-BH3 (peptide), sequence (O43521 141-166): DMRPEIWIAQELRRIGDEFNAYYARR

The substance Bim-BH3 (peptide) returned a Total buried SASA in assay [1] of 2000 Å2. In addition, the buried contact surface on Bim-BH3 in assay [2] came out at 1100 Å2. Also, the buried contact surface on BHRF1 in assay [3] turned out to be 908 Å2.
